From patent publication US8647863

Test system: ParA resolvase
Assay: cell_activity
Details: complete recombination of pHCNparA and pSIPHCNparA into minicircle and miniplasmid 30 min after arabinose induction in E. coli; about 50% when resolvase was …

ParA resolution sites res1/res2 (in plasmids pHCNparA, pSIPHCNparA, pSIPresHCN)
activity: 100%
